This note sets out measurements from US20260125446A1 (Eli Lilly, published 2026).

Ends that are not written are not given here.

The target in assay [1] is T1, human RXFP1 receptor (human, UniProt Q9HBX9 1-757).
T1 sequence: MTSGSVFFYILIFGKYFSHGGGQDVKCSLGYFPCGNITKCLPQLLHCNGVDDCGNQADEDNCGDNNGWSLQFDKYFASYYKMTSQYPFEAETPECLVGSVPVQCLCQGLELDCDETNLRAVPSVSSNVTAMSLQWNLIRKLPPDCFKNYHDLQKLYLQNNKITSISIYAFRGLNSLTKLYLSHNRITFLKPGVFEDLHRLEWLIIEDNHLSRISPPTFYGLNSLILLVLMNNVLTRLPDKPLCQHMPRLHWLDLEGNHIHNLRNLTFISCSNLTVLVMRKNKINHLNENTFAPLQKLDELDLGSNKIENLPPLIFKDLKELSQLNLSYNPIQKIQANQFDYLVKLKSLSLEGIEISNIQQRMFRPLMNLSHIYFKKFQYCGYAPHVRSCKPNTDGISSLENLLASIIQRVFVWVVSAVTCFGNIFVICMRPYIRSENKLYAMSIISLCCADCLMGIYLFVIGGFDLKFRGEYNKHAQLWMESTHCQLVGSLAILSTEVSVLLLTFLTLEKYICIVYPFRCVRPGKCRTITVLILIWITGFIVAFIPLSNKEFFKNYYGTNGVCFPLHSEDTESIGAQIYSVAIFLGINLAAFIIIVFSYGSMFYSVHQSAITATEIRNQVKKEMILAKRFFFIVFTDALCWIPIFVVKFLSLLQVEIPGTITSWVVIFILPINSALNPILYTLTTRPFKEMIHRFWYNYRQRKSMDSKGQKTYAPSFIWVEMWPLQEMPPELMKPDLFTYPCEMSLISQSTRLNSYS
The assay is described as follows: cell-based or functional assay.

Assay [2] concerns the target human RXFP2 receptor (human, UniProt Q8WXD0 1-754). The assay is described as follows: cell-based or functional assay.
The target in assay [3] is T2, rabbit serum albumin (rabbit, UniProt P49065 25-608).
T2 construct: Bought protein, immobilized on a CM5 chip by amine coupling; also called Rabbit SA
The assay is described as follows: SPR (Biacore 8K), albumin immobilized on CM5 chip, 25 C. As to the method: (§1) The immobilization of the serum albumin to a Series S Sensor Chip CM5 surface is performed according to the manufacturer's instructions (Amine Coupling Kit BR-1000-50). Briefly, carboxyl groups on the sensor chip surfaces (flow cell 1 and 2) are activated by injecting 70 μL of a mixture containing 75 mg/mL EDC and 11.5 mg/mL NHS at 10 μL/min. Human, cynomolgus monkey, mouse, rat, pig, dog, cow and rabbit serum albumin are diluted in 10 mM sodium acetate pH 4.0 (BR-1003-49) at […] and then injected over the activated chip surfaces (flow cell 2, channel 1 to 8) at 10 μL/min for 180 sec (human, mouse, rat, pig and cow serum albumin are obtained from Sigma Aldrich (St. Louis, MO); cynomolgus monkey serum albumin is obtained from Hölzel Diagnostika (Cologne, Germany); dog serum albumin is obtained from Molecular Innovations (Novi, MI); and rabbit serum albumin is obtained from Fitzgerald Industries Intl. (Acton, MA). The various serum albumins are covalently immobilized through free amines onto a carboxymethyl dextran-coated sensor chip CM5 targeting a surface density of about 100 (62-145) RU. Excess reactive groups on the surfaces (flow cell 1 and 2) are deactivated by injecting 70 μL of 1 M ETA HCl—NaOH pH 8.5.
(§2) 150 μl of sample is individually injecting sequentially across the immobilized serum albumins on the chip's surface and dissociating for 600 sec at 50 μL/min flow rate at 25° C. The surface is regenerated by injecting 10 mM glycine-HCl pH 1.5 (BR-1003-54) at 50 μL/min for 100 sec. The resulting sensorgrams are analyzed using Biacore 8K Insight Evaluation Software (version 2.0.15.12933) 1:1 binding kinetics model fitting to calculate the binding kinetic parameter association rate (ka), dissociation rate (kd), and equilibrium dissociation constant (KD).

Assay [4] deals with T3, cow serum albumin (cow, UniProt P02769 25-607).
T3 construct: Bought protein, immobilized on a CM5 chip by amine coupling; also called Cow SA
Nature of the assay: SPR (Biacore 8K), albumin immobilized on CM5 chip, 25 C, steady state. The protocol: as §1
150 μl of sample is individually injecting sequentially across the immobilized serum albumins on the chip's surface and dissociating for 600 sec at 50 μL/min flow rate at 25° C. The surface is regenerated by injecting 10 mM glycine-HCl pH 1.5 (BR-1003-54) at 50 μL/min for 100 sec. The resulting sensorgrams are analyzed using Biacore 8K Insight Evaluation Software ([…]).

For assay [5], the target named is T4, dog serum albumin (dog, UniProt P49822 25-608).
T4 construct: Bought protein, immobilized on a CM5 chip by amine coupling; also called Dog SA
The assay is described as follows: SPR (Biacore 8K), albumin immobilized on CM5 chip, 25 C, 1:1 kinetic fit. The protocol:
as §1, §2
(In general: Surface plasmon resonance follows binding to a sensor surface in real time, without labels.)

Assay [6] deals with T5, cynomolgus monkey serum albumin (cynomolgus monkey, UniProt A2V9Z4 25-608).
T5 construct: Bought protein, immobilized on a CM5 chip by amine coupling; also called Cyno SA
Described as above. As to the method: as §1, §2

Assay [7] concerns the target T6, pig serum albumin (pig, UniProt P08835 25-607).
T6 construct: Bought protein, immobilized on a CM5 chip by amine coupling; also called Pig SA
The description is as above. As to the method:
as §1, §2

The target in assay [8] is T7, human serum albumin (human, UniProt P02768 25-609).
T7 construct: Bought protein, immobilized on a CM5 chip by amine coupling; also called Human SA
Described as above. The protocol:
as §1, §2

The target in assay [9] is T8, mouse serum albumin (mouse, UniProt P07724 25-608).
T8 construct: Bought protein, immobilized on a CM5 chip by amine coupling; also called Mouse SA
The description is as above. The protocol:
as §1, §2

The target of assay [10] is T9, rat serum albumin (rat, UniProt P02770 25-608).
T9 construct: Bought protein, immobilized on a CM5 chip by amine coupling; also called Rat SA
Described as above. The protocol:
as §1, §2

The target in assay [11] is T3, cow serum albumin. The assay is described as above. As to the method:
as §1, §2

B1: RLN Analog 5 (other)
chain: SWMEEVIKLCGRELVRAQIAICGMSTWSGGGSGGSGGGQLYSALANKCCHVGCTKRSLARFCGGGGQGGGGQGGGGQGGGGQGGGGQEVQLLESGGGLVQPGGSLRLSCAASGRYIDETAVAWFRQAPGKEREFVAGIGGGVDITYYADSVKGRFTISRDNSKNTLYLQMNSLRPEDTAVYYCAARPGRPLITSKVADLYPYWGQGTLVTVSSPP
notes: Single-chain fusion: RLN2 B chain (desB1) - L2 - RLN2 A chain - (G4Q)5 L1 - VHH (C-terminal)
As a reminder, the Kd is a measure of binding affinity in units of concentration. The koff is the rate constant with which the complex falls apart. The kon is the rate constant with which the complex forms. Regarding B1, the “hRXFP1 EC50 nM GeoMean (cAMP CRE luciferase reporter assay, CHO cells expressing human RXFP1)” value in assay [1] is 8.1 nM. Further, the “hRXFP2 EC50 nM GeoMean (cAMP CRE luciferase reporter assay, CHO cells expressing human RXFP2)” value in [2] is 98 nM. Besides, the binding result in assay [3] was “no binding (tested: 1000 nM (highest concentration tested))”. Also, the Kd was found to be 120 nM in assay [4]; 4.7 nM in [5]; 1.8 nM in assay [6]; 23 nM in assay [7]; 0.45 nM in assay [8]; 14 nM in [9]. Also, in assay [10], the dissociation constant Kd amounted to 10 nM. Besides, the koff in assay [5] was found to be 0.0034 s⁻¹; in [6], 0.0015 s⁻¹; in [7], 0.013 s⁻¹; in [8], 0.00026 s⁻¹; in [9] it was 0.0083 s⁻¹; in [10], 0.0072 s⁻¹. Moreover, the kon in [5] was determined as 710000 M⁻¹ s⁻¹; in [6], 820000 M⁻¹ s⁻¹; in [7], 580000 M⁻¹ s⁻¹; in [8] it was 580000 M⁻¹ s⁻¹; in assay [9], 590000 M⁻¹ s⁻¹; in [10] it was 700000 M⁻¹ s⁻¹.

B2: RLN Analog 1 (other)
chain: EVQLLESGGGLVQPGGSLRLSCAASGRYIDETAVAWFRQAPGKEREFVAGIGGGVDITYYADSVKGRFTISRDNSKNTLYLQMNSLRPEDTAVYYCAARPGRPLITSKVADLYPYWGQGTLVTVSSGGGGQGGGGQGGGGQGGGGQGGGGQQLYSALANKCCHVGCTKRSLARFCGGGSGGSGGGSWMEEVIKLCGRELVRAQIAICGMSTWS
On to B2, for which, in assay [3], the binding result is “no binding (tested: 1000 nM (highest concentration tested))”. Also, the Kd in [5] came out at 1.2 nM; in assay [6], 0.5 nM; in assay [11], 37 nM; in [7], 7.1 nM; in assay [8] it was 0.11 nM; in assay [9] it was 3.3 nM. The dissociation constant Kd in [10] came to 2.1 nM. Further, the off-rate constant (koff) in [5] was 0.0015 s⁻¹; in [6], 0.00053 s⁻¹; in assay [11] it was 0.05 s⁻¹; in assay [7], 0.0055 s⁻¹; in [8] it was 0.00011 s⁻¹; in [9], 0.0042 s⁻¹. In [10], the dissociation rate constant (koff) amounted to 0.0026 s⁻¹. For the same molecule, the kon amounted to 1.3e+06 M⁻¹ s⁻¹ in assay [5]; 1.1e+06 M⁻¹ s⁻¹ in [6]; 1.4e+06 M⁻¹ s⁻¹ in assay [11]; 780000 M⁻¹ s⁻¹ in assay [7]; 980000 M⁻¹ s⁻¹ in [8]; 1.3e+06 M⁻¹ s⁻¹ in assay [9]. The molecule also yielded an on-rate (kon) in assay [10] of 1.2e+06 M⁻¹ s⁻¹.

B3: RLN Analog 14 (other)
chain: EVQLLESGGGLVQPGGSLRLSCAASGRYIDETAVAWFRQAPGKGREFVAGIGGGVDITYYADSVKGRFTISRDNSKNTLYLQMNSLRPEDTAVYYCAARPGRPLITSKVADLYPYWGQGTLVTVSSPGPQPGPQPGPQPGPQPGPQPGPQPGPQPGPQALANKCCHVGCTKRSLARFCGGGSGGSGGGSWMEEVIKLCGRELVRAQIAICGMSTWS
notes: Single-chain fusion: VHH - (PGPQ)8 L1 - RLN2 A chain (desA1-4) - L2 - RLN2 B chain (desB1)
Take B3: the binding result in [3] is listed as “no binding (tested: 1000 nM (highest concentration tested))”. Further, the Kd in assay [4] amounted to 34 nM; in [5] it was 1.1 nM; in [6] it was 0.61 nM; in [7] it was 6 nM; in assay [8], 0.16 nM; in [9], 3.1 nM. This molecule also came in with a Kd in assay [10] of 2.2 nM. The koff is 0.0017 s⁻¹ in assay [5]; 0.00068 s⁻¹ in assay [6]; 0.0058 s⁻¹ in assay [7]; 0.00019 s⁻¹ in [8]; 0.0046 s⁻¹ in [9]; 0.0032 s⁻¹ in assay [10]. In addition, the kon was 1.5e+06 M⁻¹ s⁻¹ in [5]; 1.1e+06 M⁻¹ s⁻¹ in assay [6]; 970000 M⁻¹ s⁻¹ in [7]; 1.2e+06 M⁻¹ s⁻¹ in assay [8]; 1.5e+06 M⁻¹ s⁻¹ in [9]; 1.4e+06 M⁻¹ s⁻¹ in [10].

B4: RLN Analog 2 (other)
chain: EVQLLESGGGLVQPGGSLRLSCAASGRYIDETAVAWFRQAPGKEREFVAGIGGGVDITYYADSVKGRFTISRDNSKNTLYLQMNSLRPEDTAVYYCAARPGRPLITSKVADLYPYWGQGTLVTVSSPGPAPGPAPGPAPGPAPGPAPGPAPGPAPGPAQLYSALANKCCHVGCTKRSLARFCGGGSGGSGGGSWMEEVIKLCGRELVRAQIAICGMSTWS
notes: Single-chain fusion: VHH - (PGPA)8 L1 - RLN2 A chain - L2 - RLN2 B chain (desB1)
In the case of B4, the binding result in assay [3] is recorded as “no binding (tested: 1000 nM (highest concentration tested))”. Besides, the Kd in [5] worked out at 1.4 nM; in [6], 0.45 nM; in assay [11], 50 nM; in assay [7], 8 nM; in [8], 0.1 nM; in [9] it was 3.8 nM. In assay [10], this molecule had a dissociation constant Kd of 3 nM. The koff in [5] came to 0.0015 s⁻¹; in assay [6] it was 0.00052 s⁻¹; in [11], 0.049 s⁻¹; in [7], 0.0056 s⁻¹; in assay [8], 9.5e-05 s⁻¹; in [9], 0.0042 s⁻¹. Moreover, the koff in assay [10] turned out to be 0.0029 s⁻¹. The association rate constant (kon) in assay [5] was 1e+06 M⁻¹ s⁻¹; in [6], 1.2e+06 M⁻¹ s⁻¹; in assay [11] it was 980000 M⁻¹ s⁻¹; in assay [7], 690000 M⁻¹ s⁻¹; in [8], 920000 M⁻¹ s⁻¹; in assay [9], 1.1e+06 M⁻¹ s⁻¹. Besides, the on-rate constant (kon) in assay [10] was found to be 980000 M⁻¹ s⁻¹.

B5: native, human RLN2 (ligand)
chain 1: QLYSALANKCCHVGCTKRSLARFC
chain 2: DSWMEEVIKLCGRELVRAQIAICGMSTWS
modifications: disulfide (positions not given here); not fully specified (bridges); ends not checked; also: two interchain and one intra-A-chain disulfide, pairing not given here
Turning to B5, the “hRXFP1 EC50 nM GeoMean (cAMP CRE luciferase reporter assay, CHO cells expressing human RXFP1)” value in assay [1] came out at 0.15 nM. In addition, the “hRXFP2 EC50 nM GeoMean (cAMP CRE luciferase reporter assay, CHO cells expressing human RXFP2)” value in assay [2] came out at 1.7 nM.
